The values that follow come from PMC3873459.

As usually defined, the IC50 is the concentration needed to halve the response being measured. Usually stoichiometry N stands for the number of molecules, sites or subunits per partner or assembly. Usually Kd stands for the equilibrium constant for the complex coming apart.

Experiment [1] has as its target recombinant HLA-DR1 protein bound to a hemagglutinin (HA) peptide. Kind of experiment: pull-down.
Experiment [2] concerns the target pfiT, tag-less (GST removed with PreScission protease) (Pseudomonas fluorescens). Kind of experiment: AUC; sedimentation velocity, pfiT alone at 3.6 µM, 20°C, 50,000 rpm, 10 mM Hepes pH 7.4, 150 mM NaCl, 2 mM DTT; c(s) and c(M) distributions (SEDFIT).
Experiment [3] has the same target. Kind of experiment: AUC; sedimentation equilibrium, pfiT alone at 9 µM and 18 µM, 20°C, 20,000/25,000/30,000 rpm, HBS; global fit with monomer-dimer model (SEDPHAT); dimer to monomers.

On to “pfiT, tag-less (GST removed with PreScission protease) (natural protein)”, for which the IC50 in experiment [1] came out at 47 µM. The stoichiometry N in experiment [2] was found to be 2. In experiment [3], this substance returned a dissociation constant Kd of 0.15 µM.
